Assay results as given in US20250027068.

Biological target: pooled human IgG (human IgG1,2,3 and 4)

Row | Protein | Enzyme Activity Endpoint Assay: Fab′2 | Enzyme Activity Endpoint Assay: Fc | Enzyme Activity Endpoint Assay: IgG | Enzyme Activity Endpoint Assay: scIgG | Enzyme Activity Endpoint Assay: Fab'2
1 | PRT-107 (protein) MRNATEAYAKEVPHQITSVWTKGVTPLTPEQFRYNNEDVIHAPYLANQGWYDITKAFDGKDNLLCGAATAGNMLHWWFDQNKTEIEAYLSKHPEKQKIIFNNQELFDLKAAIDTKDSQTNSQLFNYFRDKAFPNLSARQLGVMPDLVLDMFINGYYLNVFKTQSTDVNRPYQTKDKRGGIFDAVFTRGDQTTLLTARHDLKNKGLNDISTIIKQELTEGKALALSHTYANVSISHVINLWGADFNAEGNLEAIYVTDSDANASIGMKKYFVGVNAAGHVAISAKKIEGENIGAQVLGLFTLSSGKDIWQKLS | 553 ng/µL | 200 ng/µL | 0 ng/µL | 117 ng/µL | –
2 | PRT-108 (protein) MRNATEAYAKEVPHQITSVWTKGVTPPTPEQFRYNNEDVIHAPYTAHQGWYDITKTFDGKDNLLCGAATAGNMLHWWFDQNKTEIEAYLSKHPEKQKIIFNNQELFDLKAAIDTKDSQTNSQLFNYFRDKAFPNLSARQLGVMPDLVLDMFINGYYLNVFKTQSTDVNRPYQDKDKRGGIFDAVFTRGDQTTLLTARHDLKNKGLNDISTLIKQELTEGRALALSHTYANVSISHVINLWGADFNAEGNLEAIYVTDSDANASIGMKKYFVGINAAGHVAISAKKIEGENIGAQVLGLFTLSSGKDIWQKLS | 666 ng/µL | 203 ng/µL | 0 ng/µL | 0 ng/µL | –
3 | PRT-109 (protein) MRNATEAYAKEVPHTITSVWTKGVTPLTPEQFRYNNEDVIHAPYVAHQGWYDITKTFDGKDNLLCGAATAGNMLHWWFDQNKTEIEAYLSKHPEKQKIIFNNQELFDLKAAIDTKDSQTNSQLFNYFRDKAFPNLSARQLGVMPDLVLDMFINGYYLNVFKTQSTDVNRPYQDKDKRGGIFDAVFTRGDQTTLLTARHDLKNKGLNEISTLIKQELTEGKALALSHTYANVSISHVINLWGADFNAEGNLEAIYVTDSDDNASIGMKKYFVGVNAAGKVAISAKKIEGENIGAQVLGLFTLSSGKDIWQKLS | 457 ng/µL | 181 ng/µL | 28 ng/µL | 0 ng/µL | –
4 | PRT-175 (protein) MANQEIRYSEVTPYHITSVWTKGVTPPTDFTQGEDVFHAPYKANQGWYDITKTFNGKDDLLCGAATAGNMLHWWFDQNKTQIERYLKKHPEKQKINFNGEQMFDVKEAIDTKNSQTNSELFNYFKEKAFPYLSTKHLGVFPDHVIDMFINGYRLSLTNHGPTPVKRQSKDPRGGIFDAVFTRGDQSKLLTSRHDFKEKTLNEISQLIKQELTEGKALGLSHTYANVRINHVINLWGADFDAEGNLEAIYVTDSDSNASIGMKKYFVGVNSAGKVAISAKEIKEDNIGAQVLGLFTLSTGKDSWEKTN | – | 147 ng/µL | 0 ng/µL | 0 ng/µL | 497 ng/µL
5 | PRT-176 (protein) MANQEIRYSEVTPYHITSVWTKGVTPPTDFIKGEDVFHAPYKAHQGWYDITKTFNGGDDLLCGAATAGNMLHWWFDQNKTQIEAYLKKHPEKQKINFNGEQMFDVKEAIDTKNSQTNSELFNYFKEKAFPYLSTKHLGVFPDHVIDMFINGYRLSLTNHGPTPVKRQTKDPRGGIFDAVFGRGDQTKLLTSRHDFKEKTLNDISQLIKQELQSGKALGLSHTYANVRINHVINLWGADFDAEGNLEAIYVTDSDSNASIGMKKYFVGKNASGKVAISAKEIEDENIGAQVLGLFTLSTGKKSWEKTN | – | 140 ng/µL | 0 ng/µL | 86 ng/µL | 310 ng/µL
6 | PRT-110 (protein) MRNATEAYAKEVPHQITSVWTKGVTPPTPEQFRYNNEDVFHAPYTAHQGWYDITKTFDGKDNLLCGAATAGNMLHWWFDQNKTEIEAYLSKHPEKQKIIFNNQELFDLKAAIDTKDSQTNSALFNYFRDKAFPNLSARQLGVMPDLVLDMFINGYYLNVFKTQSTDVNRPYQDKDKRGGIFDAVFTRGDQTTLLTARHDLKNKTLNDISTIIKQELTEGRALALSHTYANVSISHVINLWGADFNAEGNLEAIYVTDSDSNASIGMKKYFVGVNASGKVAISAKKIEGENIGAQVLGLFTLSSGKDIWQKLS | 575 ng/µL | 136 ng/µL | 0 ng/µL | 0 ng/µL | –
7 | PRT-167 (protein) MANQEIRYSEVTPYHVTSVWTKGVTPPTDFTQGEDVFHAPYKANQGWYDITKTFNGKDDLLCGAATAGNMLHWWFDQNKDQIKRYLEEHPEKQKINFNGEQMFDVKEAIDTKNSQLDSKLFEYFKEKAFPYLSTKHLGVFPDHVIDMFINGYRLSLTNHGPTPVKEGSKDPRGGIFDAVFTRGDQSKLLTSRHDFKEKNLKEISDLIKKELTEGKALGLSHTYANVRINHVINLWGADFDSNGNLKAIYVTDSDSNASIGMKKYFVGVNSAGKVAISAKEIKEDNIGAQVLGLFTLSTGQDSWNQTN | – | 161 ng/µL | 0 ng/µL | 0 ng/µL | 572 ng/µL
8 | PRT-168 (protein) MANQEIRYSEVTPYHVTSVWTKGVTPPEDFTQGEDVFHAPYKANQGWYDITKTFNGKDDLLCGAATAGNMLHWWFDQNKDQIKRYLEEHPEKQKINFNGEQMFDVKEAIDTKNSQLDSKLFEYFKEKAFPYLSTKHLGVFPDHVIDMFINGYRLSLTNHGPTPVKEGSKDPRGGIFDAVFTRGDQSKLLTSRHDFKEKNLKEISDLIKKELTEGKALGLSHTYANVRINHVINLWGADFDSNGNLKAIYVTDSDSNASIGMKKYFVGVNSAGKVAISAKEIKEDNIGAQVLGLFTLSTGQDSWNQTN | – | 159 ng/µL | 0 ng/µL | 0 ng/µL | 628 ng/µL
9 | PRT-169 (protein) MANQEIRYSEVTPYHVTSVWTKGVTPPTDFTQGEDVFHAPYKANQGWYDITKTFNGKDDLLCGAATAGNMLHWWFDQNKDQIKRYLEEHPEKQKINFNGEQMFDVKEAIDTKNDQLDSKLFEYFKEKAFPYLSTKHLGVFPDHVIDMFINGYRLSLTNHGPTPVKEGSKDPRGGIFDAVFTRGDQSKLLTSRHDFKEKNLKEISDLIKKELTEGKALGLSHTYANVRINHVINLWGADFDSNGNLKAIYVTDSDSNASIGMKKYFVGVNSAGKVAISAKEIKEDNIGAQVLGLFTLSTGQDSWNQTN | – | 188 ng/µL | 0 ng/µL | 0 ng/µL | 658 ng/µL
10 | PRT-174 (protein) MANQEIRYSEVTPYHVTSVWTKGVTPPANFTQGEDVFHAPYVANQGWYDITKTFNGKDDLLCGAATAGNMLHWWFDQNKDQIKRYLEEHPEKQKINFNGEQMFDVKEAIDTKNHQLDSKLFEYFKEKAFPYLSTKHLGVFPDHVIDMFINGYRLSLTNHGPTPVKEGSKDPRGGIFDAVFTRGDQSKLLTSRHDFKEKNLKEISDLIKKELTEGKALGLSHTYANVRINHVINLWGADFDSNGNLKAIYVTDSDSNASIGMKKYFVGKNASGKVAISAKEIEDENIGAQVLGLFTLSTGQDSWNQTN | – | 160 ng/µL | 0 ng/µL | 0 ng/µL | 586 ng/µL
11 | PRT-173 (protein) MANQEIRYSEVTPYHVTSVWTKGVTPPANFTQGEDVFHAPYVANQGWYDITKTFNGKDDLLCGAATAGNMLHWWFDQNKDQIKRYLEEHPEKQKINFNGEQMFDVKEAIDTKNHQLDSKLFEYFKEKAFPYLSTKHLGVFPDHVIDMFINGYRLSLTNHGPTPVKEGSKDPRGGIFDAVFTRGDQSKLLTSRHDFKEKNLKEISDLIKKELTEGKALGLSHTYANVRINHVINLWGADFDSNGNLKAIYVTDSDSNASIGMKKYFVGKNASGKVAISAKEIEGENIGAQVLGLFTLSTGQDSWNQTN | – | 226 ng/µL | 0 ng/µL | 30 ng/µL | 912 ng/µL
12 | PRT-172 (protein) MANQEIRYSEVTPYHVTSVWTKGVKPPTDFIKGEDVFHAPYKAHQGWYDITKTFNGKDDLLCGAATAGNMLHWWFDQNKDQIKRYLEEHPEKQKINFNGEQMFDVKEAIDTKNSQLDSKLFEYFKEKAFPYLSTKHLGVFPDHVIDMFINGYRLSLTNHGPTPVKEGSKDPRGGIFDAVFTRGDQSKLLTSRHDFKEKNLKEISDLIKKELTEGKALGLSHTYANVRINHVINLWGADFDSNGNLKAIYVTDSDSNASIGMKKYFVGVNSAGKVAISAKEIKEDNIGAQVLGLFTLSTGQDSWNQTN | – | 215 ng/µL | 0 ng/µL | 0 ng/µL | 821 ng/µL
13 | PRT-171 (protein) MANQEIRYSEVTPYHVTSVWTKGVTPPTDFIKGEDVFHAPYKAGQGWYDITKTFNGKDDLLCGAATAGNMLHWWFDQNKDQIKRYLEEHPEKQKINFNGEQMFDVKEAIDTKNSQLDSKLFEYFKEKAFPYLSTKHLGVFPDHVIDMFINGYRLSLTNHGPTPVKEGSKDPRGGIFDAVFTRGDQSKLLTSRHDFKEKNLKEISDLIKKELTEGKALGLSHTYANVRINHVINLWGADFDSNGNLKAIYVTDSDSNASIGMKKYFVGVNSAGKVAISAKEIKEDNIGAQVLGLFTLSTGQDSWNQTN | – | 187 ng/µL | 23 ng/µL | 0 ng/µL | 765 ng/µL
14 | PRT-170 (protein) MANQEIRYSEVTPYHVTSVWTKGVTPPTDFIKGEDVFHAPYKAHQGWYDITKTFNGKDDLLCGAATAGNMLHWWFDQNKDQIKRYLEEHPEKQKINFNGEQMFDVKEAIDTKNSQLDSKLFEYFKEKAFPYLSTKHLGVFPDHVIDMFINGYRLSLTNHGPTPVKEGSKDPRGGIFDAVFTRGDQSKLLTSRHDFKEKNLKEISDLIKKELTEGKALGLSHTYANVRINHVINLWGADFDSNGNLKAIYVTDSDSNASIGMKKYFVGVNSAGKVAISAKEIKEDNIGAQVLGLFTLSTGQDSWNQTN | – | 193 ng/µL | 0 ng/µL | 0 ng/µL | 755 ng/µL
